Measured values published in patent publication US20030200558A1 (MONSANTO, published 2003).

B1: β-conglycinin β subunit mutant 39335-26 (other)
chain: MDYKDDDDKLKVREDENNPFYLRSSNSFQTLFENQNGRIRLIQRFNKRSPQLENLRDYRIVQFQSKPNTIILPHHADADFIIIILSGRAILTLVNNDDRDSYNIHPGDAQRIPAGTTYYIINPHDHQNLKIIKIAIPVNKPGRYDDFFLSSTQAQQSYLQGFSHNILETSFHSEFEEINRVLLGEEEEQRQQEGVIVELSKEQIRQLSRRAKSSSRKTISSEDEPFNLRSRNPIYSNNFGKFFEITPEKTPQLRDLDIFLSSVDINEGALLLPHFNSKAIVILVINEGDANIELVGIKEQQQKQKQEEEPLEVQRYRAELSEDDIIVIPAAYPFVVNATSNLNIIAIGINAENNQRNFLAGEKDNVVRQIERQVQELAFPGSAQDVERLLKKQRESYFVDAQPQQKEEGSKGRKGPFPSILGALY
B2: β-conglycinin β subunit mutant 39335-42 (other)
chain: MDYKDDDDKLKVREDENNPFYLRSSNSFQTLFENQNGRIRLIQRFNKRSPQLENLRDYRIVQIQSKPNTIILPHHADADFIIIILSGRAILTLVNNDDRDSYNIHPGDAIRIPAGTTYYIINPHDHQNLKIIKIAIPVNKPGRYDDFFLSSTQAQQSYLQGFSHNILETSFHSEFEEINRVLLGEEEEQRQQEGVIVELSKEQIRQLSRRAKSSSRKTISSEDEPFNLRSRNPIYSNNFGKIFEITPEKTPQLRDLDIFLSSVDINEGALLLPHFNSKAIVILVINEGDANIELVGIKEQQQKQKQEEEPLEVQRYRAELSEDDIIVIPAAYPFVVNATSNLNFLAFGINAENNQRNFLAGEKDNVVRQIERQVQELAFPGSAQDVERLLKKQRESYFVDAQPQQKEEGSKGRKGPFPSILGALY
B3: β-conglycinin β subunit mutant 39335-51 (other)
chain: MDYKDDDDKLKVREDENNPFYLRSSNSFQTLFENQNGRIRLIQRFNKRSPQLENLRDYRIVQIQSKPNTIILPHHADADFIIIILSGRAIITIVNNDDRDSYNIHPGDAIRIPAGTTYYIINPHDHQNLKIIKIAIPVNKPGRYDDFFLSSTQAQQSYLQGFSHNILETSFHSEFEEINRVLLGEEEEQRQQEGVIVELSKEQIRQLSRRAKSSSRKTISSEDEPFNLRSRNPIYSNNFGKFFEITPEKTPQLRDLDIFISSVDINEGALLLPHFNSKAIVILVINEGDANIEIVGIKEQQQKQKQEEEPLEVQRYRAELSEDDIIVIPAAYPFVVNATSNLNIIAIGINAENNQRNFLAGEKDNVVRQIERQVQELAFPGSAQDVERLLKKQRESYFVDAQPQQKEEGSKGRKGPFPSILGALY
B4: β-conglycinin β subunit mutant 39335-29 (other)
chain: MDYKDDDDKLKVREDENNPFYLRSSNSFQTLFENQNGRIRLIQRFNKRSPQLENLRDYRIVQFQSKPNTIILPHHADADFIIIILSGRAILTLVNNDDRDSYNIHPGDAQRIPAGTTYYIINPHDHQNLKIIKIAIPVNKPGRYDDFFLSSTQAQQSYLQGFSHNILETSFHSEFEEINRVLLGEEEEQRQQEGVIVELSKEQIRQLSRRAKSSSRKTISSEDEPFNLRSRNPIYSNNFGKIFEITPEKTPQLRDLDIFISSVDINEGALILPHFNSKAIVILVINEGDANIEIVGIKEQQQKQKQEEEPLEVQRYRAELSEDDVFVIPAAYPFVVNATSNLNIIAIGINAENNQRNFLAGEKDNVVRQIERQVQELAFPGSAQDVERLLKKQRESYFVDAQPQQKEEGSKGRKGPFPSILGALY
B5: β-conglycinin β subunit mutant 39335-43 (other)
chain: MDYKDDDDKLKVREDENNPFYLRSSNSFQTLFENQNGRIRLIQRFNKRSPQLENLRDYRIVQFQSKPNTIILPHHADADFIIIILSGRAILTLVNNDDRDSYNIHPGDAIRIPAGTTYYIINPHDHQNLKIIKIAIPVNKPGRYDDFFLSSTQAQQSYLQGFSHNILETSFHSEFEEINRVLLGEEEEQRQQEGVIVELSKEQIRQLSRRAKSSSRKTISSEDEPFNLRSRNPIYSNNFGKIFEITPEKTPQLRDLDIFLSSVDINEGALLLPHFNSKAIVILVINEGDANIELVGIKEQQQKQKQEEEPLEVQRYRAELSEDDIIVIPAAYPFVVNATSNLNIIAIGINAENNQRNFLAGEKDNVVRQIERQVQELAFPGSAQDVERLLKKQRESYFVDAQPQQKEEGSKGRKGPFPSILGALY
B6: β-conglycinin β subunit mutant 39335-36 (other)
chain: MDYKDDDDKLKVREDENNPFYLRSSNSFQTLFENQNGRIRLIQRFNKRSPQLENLRDYRIVQFQSKPNTIILPHHADADFIIIILSGRAILTLVNNDDRDSYNIHPGDAIRIPAGTTYYIINPHDHQNLKIIKIAIPVNKPGRYDDFFLSSTQAQQSYLQGFSHNILETSFHSEFEEINRVLLGEEEEQRQQEGVIVELSKEQIRQLSRRAKSSSRKTISSEDEPFNLRSRNPIYSNNFGKFFEITPEKTPQLRDLDIFISSVDINEGALILPHFNSKAIVILVINEGDANIEIVGIKEQQQKQKQEEEPLEVQRYRAELSEDDVFVIPAAYPFVINATSNLNFLAFGINAENNQRNFLAGEKDNVVRQIERQVQELAFPGSAQDVERLLKKQRESYFVDAQPQQKEEGSKGRKGPFPSILGALY
B7: β-conglycinin β subunit mutant 39335-46 (other)
chain: MDYKDDDDKLKVREDENNPFYLRSSNSFQTLFENQNGRIRLIQRFNKRSPQLENLRDYRIVQIQSKPNTIILPHHADADFIIIILSGRAIITIVNNDDRDSYNIHPGDAQRIPAGTTYYIINPHDHQNLKIIKIAIPVNKPGRYDDFFLSSTQAQQSYLQGFSHNILETSFHSEFEEINRVLLGEEEEQRQQEGVIVELSKEQIRQLSRRAKSSSRKTISSEDEPFNLRSRNPIYSNNFGKFFEITPEKTPQLRDLDIFISSVDINEGALLLPHFNSKAIVILVINEGDANIELVGIKEQQQKQKQEEEPLEVQRYRAELSEDDIIVIPAAYPFVVNATSNLNIIAIGINAENNQRNFLAGEKDNVVRQIERQVQELAFPGSAQDVERLLKKQRESYFVDAQPQQKEEGSKGRKGPFPSILGALY
B8: β-conglycinin β subunit mutant 39335-28 (other)
chain: MDYKDDDDKLKVREDENNPFYLRSSNSFQTLFENQNGRIRLIQRFNKRSPQLENLRDYRIVQFQSKPNTIILPHHADADFIIIILSGRAIITLVNNDDRDSYNIHPGDAIRIPAGTTYYIINPHDHQNLKIIKIAIPVNKPGRYDDFFLSSTQAQQSYLQGFSHNILETSFHSEFEEINRVLLGEEEEQRQQEGVIVELSKEQIRQLSRRAKSSSRKTISSEDEPFNLRSRNPIYSNNFGKIFEITPEKTPQLRDLDIFISSVDINEGALILPHFNSKAIVILVINEGDANIEIVGIKEQQQKQKQEEEPLEVQRYRAELSEDDVFVIPAAYPFVVNATSNLNIIAIGINAENNQRNFLAGEKDNVVRQIERQVQELAFPGSAQDVERLLKKQRESYFVDAQPQQKEEGSKGRKGPFPSILGALY
B9: β-conglycinin β subunit mutant 39335-49 (other)
chain: MDYKDDDDKLKVREDENNPFYLRSSNSFQTLFENQNGRIRLIQRFNKRSPQLENLRDYRIVQFQSKPNTIILPHHADADFIIIILSGRAILTLVNNDDRDSYNIHPGDAQRIPAGTTYYIINPHDHQNLKIIKIAIPVNKPGRYDDFFLSSTQAQQSYLQGFSHNILETSFHSEFEEINRVLLGEEEEQRQQEGVIVELSKEQIRQLSRRAKSSSRKTISSEDEPFNLRSRNPIYSNNFGKFFEITPEKTPQLRDLDIFISSVDINEGALLLPHFNSKAIVILVINEGDANIELVGIKEQQQKQKQEEEPLEVQRYRAELSEDDIIVIPAAYPFVVNATSNLNIIAIGINAENNQRNFLAGEKDNVVRQIERQVQELAFPGSAQDVERLLKKQRESYFVDAQPQQKEEGSKGRKGPFPSILGALY
B10: β-conglycinin β subunit mutant 39335-38 (other)
chain: MDYKDDDDKLKVREDENNPFYLRSSNSFQTLFENQNGRIRLIQRFNKRSPQLENLRDYRIVQFQSKPNTIILPHHADADFIIIILSGRAILTLVNNDDRDSYNIHPGDAQRIPAGTTYYIINPHDHQNLKIIKIAIPVNKPGRYDDFFLSSTQAQQSYLQGFSHNILETSFHSEFEEINRVLLGEEEEQRQQEGVIVELSKEQIRQLSRRAKSSSRKTISSEDEPFNLRSRNPIYSNNFGKFFEITPEKTPQLRDLDIFLSSVDINEGALILPHFNSKAIVILVINEGDANIELVGIKEQQQKQKQEEEPLEVQRYRAELSEDDVFVIPAAYPFVVNATSNLNFLAFGINAENNQRNFLAGEKDNVVRQIERQVQELAFPGSAQDVERLLKKQRESYFVDAQPQQKEEGSKGRKGPFPSILGALY
B11: β-conglycinin β subunit mutant 39335-27 (other)
chain: MDYKDDDDKLKVREDENNPFYLRSSNSFQTLFENQNGRIRLIQRFNKRSPQLENLRDYRIVQIQSKPNTIILPHHADADFIIIILSGRAIITLVNNDDRDSYNIHPGDAIRIPAGTTYYIINPHDHQNLKIIKIAIPVNKPGRYDDFFLSSTQAQQSYLQGFSHNILETSFHSEFEEINRVLLGEEEEQRQQEGVIVELSKEQIRQLSRRAKSSSRKTISSEDEPFNLRSRNPIYSNNFGKIFEITPEKTPQLRDLDIFISSVDINEGALILPHFNSKAIVILVINEGDANIEIVGIKEQQQKQKQEEEPLEVQRYRAELSEDDIIVIPAAYPFVINATSNLNFLAFGINAENNQRNFLAGEKDNVVRQIERQVQELAFPGSAQDVERLLKKQRESYFVDAQPQQKEEGSKGRKGPFPSILGALY
B12: β-conglycinin β subunit mutant 39335-56 (other)
chain: MDYKDDDDKLKVREDENNPFYLRSSNSFQTLFENQNGRIRLIQRFNKRSPQLENLRDYRIVQIQSKPNTIILPHHADADFIIIILSGRAIITIVNNDDRDSYNIHPGDAIRIPAGTTYYIINPHDHQNLKIIKIAIPVNKPGRYDDFFLSSTQAQQSYLQGFSHNILETSFHSEFEEINRVLLGEEEEQRQQEGVIVELSKEQIRQLSRRAKSSSRKTISSEDEPFNLRSRNPIYSNNFGKIFEITPEKTPQLRDLDIFISSVDINEGALLLPHFNSKAIVILVINEGDANIEIVGIKEQQQKQKQEEEPLEVQRYRAELSEDDIIVIPAAYPFVINATSNLNFIAFGINAENNQRNFLAGEKDNVVRQIERQVQELAFPGSAQDVERLLKKQRESYIVDAQPQQKEEGSKGRKGPFPSILGALY
B13: β-conglycinin β subunit mutant 39335-31 (other)
chain: MDYKDDDDKLKVREDENNPFYLRSSNSFQTLFENQNGRIRLIQRFNKRSPQLENLRDYRIVQFQSKPNTIILPHHADADFIIIILSGRAIITIVNNDDRDSYNIHPGDAIRIPAGTTYYIINPHDHQNLKIIKIAIPVNKPGRYDDFFLSSTQAQQSYLQGFSHNILETSFHSEFEEINRVLLGEEEEQRQQEGVIVELSKEQIRQLSRRAKSSSRKTISSEDEPFNLRSRNPIYSNNFGKIFEITPEKTPQLRDLDIFISSVDINEGALILPHFNSKAIVILVINEGDANIEIVGIKEQQQKQKQEEEPLEVQRYRAELSEDDIIVIPAAYPFVINATSNLNFLAFGINAENNQRNFLAGEKDNVVRQIERQVQELAFPGSAQDVERLLKKQRESYFVDAQPQQKEEGSKGRKGPFPSILGALY

Molecular target: the molecule itself
Test: sucrose gradient sedimentation, anti-FLAG western (self-assembly)

Binding result, no binding:
B1, B2, B3, B4, B5, B6, B7, B8, B9, B10, B11, B12, B13
